B1: [N-terminal(C18 diacid), 32H]mimylin (peptide)
peptide: {C18 diacid}-EASELSTAALGRLSAELHELATLPRTETGPEHP-NH2
SMILES: CC(C)C[C@H](NC(=O)[C@H](C)NC(=O)[C@H](C)NC(=O)[C@@H](NC(=O)[C@H](CO)NC(=O)[C@H](CC(C)C)NC(=O)[C@H](CCC(=O)O)NC(=O)[C@H](CO)NC(=O)[C@H](C)NC(=O)[C@H](CCC(=O)O)NC(=O)CCCCCCCCCCCCCCCCC(=O)O)[C@@H](C)O)C(=O)NCC(=O)N[C@@H](CCCNC(=N)N)C(=O)N[C@@H](CC(C)C)C(=O)N[C@@H](CO)C(=O)N[C@@H](C)C(=O)N[C@@H](CCC(=O)O)C(=O)N[C@@H](CC(C)C)C(=O)N[C@@H](Cc1c[nH]cn1)C(=O)N[C@@H](CCC(=O)O)C(=O)N[C@@H](CC(C)C)C(=O)N[C@@H](C)C(=O)N[C@H](C(=O)N[C@@H](CC(C)C)C(=O)N1CCC[C@H]1C(=O)N[C@@H](CCCNC(=N)N)C(=O)N[C@H](C(=O)N[C@@H](CCC(=O)O)C(=O)N[C@H](C(=O)NCC(=O)N1CCC[C@H]1C(=O)N[C@@H](CCC(=O)O)C(=O)N[C@@H](Cc1c[nH]cn1)C(=O)N1CCC[C@H]1C(N)=O)[C@@H](C)O)[C@@H](C)O)[C@@H](C)O
B2: [N-terminal(C18 diacid), 6H]mimylin (peptide)
peptide: {C18 diacid}-EASELHTAALGRLSAELHELATLPRTETGPESP-NH2
SMILES: CC(C)C[C@H](NC(=O)[C@H](C)NC(=O)[C@H](C)NC(=O)[C@@H](NC(=O)[C@H](Cc1c[nH]cn1)NC(=O)[C@H](CC(C)C)NC(=O)[C@H](CCC(=O)O)NC(=O)[C@H](CO)NC(=O)[C@H](C)NC(=O)[C@H](CCC(=O)O)NC(=O)CCCCCCCCCCCCCCCCC(=O)O)[C@@H](C)O)C(=O)NCC(=O)N[C@@H](CCCNC(=N)N)C(=O)N[C@@H](CC(C)C)C(=O)N[C@@H](CO)C(=O)N[C@@H](C)C(=O)N[C@@H](CCC(=O)O)C(=O)N[C@@H](CC(C)C)C(=O)N[C@@H](Cc1c[nH]cn1)C(=O)N[C@@H](CCC(=O)O)C(=O)N[C@@H](CC(C)C)C(=O)N[C@@H](C)C(=O)N[C@H](C(=O)N[C@@H](CC(C)C)C(=O)N1CCC[C@H]1C(=O)N[C@@H](CCCNC(=N)N)C(=O)N[C@H](C(=O)N[C@@H](CCC(=O)O)C(=O)N[C@H](C(=O)NCC(=O)N1CCC[C@H]1C(=O)N[C@@H](CCC(=O)O)C(=O)N[C@@H](CO)C(=O)N1CCC[C@H]1C(N)=O)[C@@H](C)O)[C@@H](C)O)[C@@H](C)O
B3: [N-terminal(C18 diacid), 18A]mimylin (peptide)
peptide: {C18 diacid}-EASELSTAALGRLSAELAELATLPRTETGPESP-NH2
SMILES: CC(C)C[C@H](NC(=O)[C@H](C)NC(=O)[C@H](C)NC(=O)[C@@H](NC(=O)[C@H](CO)NC(=O)[C@H](CC(C)C)NC(=O)[C@H](CCC(=O)O)NC(=O)[C@H](CO)NC(=O)[C@H](C)NC(=O)[C@H](CCC(=O)O)NC(=O)CCCCCCCCCCCCCCCCC(=O)O)[C@@H](C)O)C(=O)NCC(=O)N[C@@H](CCCNC(=N)N)C(=O)N[C@@H](CC(C)C)C(=O)N[C@@H](CO)C(=O)N[C@@H](C)C(=O)N[C@@H](CCC(=O)O)C(=O)N[C@@H](CC(C)C)C(=O)N[C@@H](C)C(=O)N[C@@H](CCC(=O)O)C(=O)N[C@@H](CC(C)C)C(=O)N[C@@H](C)C(=O)N[C@H](C(=O)N[C@@H](CC(C)C)C(=O)N1CCC[C@H]1C(=O)N[C@@H](CCCNC(=N)N)C(=O)N[C@H](C(=O)N[C@@H](CCC(=O)O)C(=O)N[C@H](C(=O)NCC(=O)N1CCC[C@H]1C(=O)N[C@@H](CCC(=O)O)C(=O)N[C@@H](CO)C(=O)N1CCC[C@H]1C(N)=O)[C@@H](C)O)[C@@H](C)O)[C@@H](C)O
B4: [N-terminal(C18 diacid), 5H]mimylin (peptide)
peptide: {C18 diacid}-EASEHSTAALGRLSAELHELATLPRTETGPESP-NH2
SMILES: CC(C)C[C@H](NC(=O)[C@H](C)NC(=O)[C@H](C)NC(=O)[C@@H](NC(=O)[C@H](CO)NC(=O)[C@H](Cc1c[nH]cn1)NC(=O)[C@H](CCC(=O)O)NC(=O)[C@H](CO)NC(=O)[C@H](C)NC(=O)[C@H](CCC(=O)O)NC(=O)CCCCCCCCCCCCCCCCC(=O)O)[C@@H](C)O)C(=O)NCC(=O)N[C@@H](CCCNC(=N)N)C(=O)N[C@@H](CC(C)C)C(=O)N[C@@H](CO)C(=O)N[C@@H](C)C(=O)N[C@@H](CCC(=O)O)C(=O)N[C@@H](CC(C)C)C(=O)N[C@@H](Cc1c[nH]cn1)C(=O)N[C@@H](CCC(=O)O)C(=O)N[C@@H](CC(C)C)C(=O)N[C@@H](C)C(=O)N[C@H](C(=O)N[C@@H](CC(C)C)C(=O)N1CCC[C@H]1C(=O)N[C@@H](CCCNC(=N)N)C(=O)N[C@H](C(=O)N[C@@H](CCC(=O)O)C(=O)N[C@H](C(=O)NCC(=O)N1CCC[C@H]1C(=O)N[C@@H](CCC(=O)O)C(=O)N[C@@H](CO)C(=O)N1CCC[C@H]1C(N)=O)[C@@H](C)O)[C@@H](C)O)[C@@H](C)O
B5: [N-terminal(C18 diacid), 17I]mimylin (peptide)
peptide: {C18 diacid}-EASELSTAALGRLSAEIHELATLPRTETGPESP-NH2
SMILES: CC[C@H](C)[C@H](NC(=O)[C@H](CCC(=O)O)NC(=O)[C@H](C)NC(=O)[C@H](CO)NC(=O)[C@H](CC(C)C)NC(=O)[C@H](CCCNC(=N)N)NC(=O)CNC(=O)[C@H](CC(C)C)NC(=O)[C@H](C)NC(=O)[C@H](C)NC(=O)[C@@H](NC(=O)[C@H](CO)NC(=O)[C@H](CC(C)C)NC(=O)[C@H](CCC(=O)O)NC(=O)[C@H](CO)NC(=O)[C@H](C)NC(=O)[C@H](CCC(=O)O)NC(=O)CCCCCCCCCCCCCCCCC(=O)O)[C@@H](C)O)C(=O)N[C@@H](Cc1c[nH]cn1)C(=O)N[C@@H](CCC(=O)O)C(=O)N[C@@H](CC(C)C)C(=O)N[C@@H](C)C(=O)N[C@H](C(=O)N[C@@H](CC(C)C)C(=O)N1CCC[C@H]1C(=O)N[C@@H](CCCNC(=N)N)C(=O)N[C@H](C(=O)N[C@@H](CCC(=O)O)C(=O)N[C@H](C(=O)NCC(=O)N1CCC[C@H]1C(=O)N[C@@H](CCC(=O)O)C(=O)N[C@@H](CO)C(=O)N1CCC[C@H]1C(N)=O)[C@@H](C)O)[C@@H](C)O)[C@@H](C)O
B6: [N-terminal(C18 diacid), 20I]mimylin (peptide)
peptide: {C18 diacid}-EASELSTAALGRLSAELHEIATLPRTETGPESP-NH2
SMILES: CC[C@H](C)[C@H](NC(=O)[C@H](CCC(=O)O)NC(=O)[C@H](Cc1c[nH]cn1)NC(=O)[C@H](CC(C)C)NC(=O)[C@H](CCC(=O)O)NC(=O)[C@H](C)NC(=O)[C@H](CO)NC(=O)[C@H](CC(C)C)NC(=O)[C@H](CCCNC(=N)N)NC(=O)CNC(=O)[C@H](CC(C)C)NC(=O)[C@H](C)NC(=O)[C@H](C)NC(=O)[C@@H](NC(=O)[C@H](CO)NC(=O)[C@H](CC(C)C)NC(=O)[C@H](CCC(=O)O)NC(=O)[C@H](CO)NC(=O)[C@H](C)NC(=O)[C@H](CCC(=O)O)NC(=O)CCCCCCCCCCCCCCCCC(=O)O)[C@@H](C)O)C(=O)N[C@@H](C)C(=O)N[C@H](C(=O)N[C@@H](CC(C)C)C(=O)N1CCC[C@H]1C(=O)N[C@@H](CCCNC(=N)N)C(=O)N[C@H](C(=O)N[C@@H](CCC(=O)O)C(=O)N[C@H](C(=O)NCC(=O)N1CCC[C@H]1C(=O)N[C@@H](CCC(=O)O)C(=O)N[C@@H](CO)C(=O)N1CCC[C@H]1C(N)=O)[C@@H](C)O)[C@@H](C)O)[C@@H](C)O
B7: [N-terminal(C18 diacid), 8L]mimylin (peptide)
peptide: {C18 diacid}-EASELSTLALGRLSAELHELATLPRTETGPESP-NH2
SMILES: CC(C)C[C@H](NC(=O)[C@H](C)NC(=O)[C@H](CC(C)C)NC(=O)[C@@H](NC(=O)[C@H](CO)NC(=O)[C@H](CC(C)C)NC(=O)[C@H](CCC(=O)O)NC(=O)[C@H](CO)NC(=O)[C@H](C)NC(=O)[C@H](CCC(=O)O)NC(=O)CCCCCCCCCCCCCCCCC(=O)O)[C@@H](C)O)C(=O)NCC(=O)N[C@@H](CCCNC(=N)N)C(=O)N[C@@H](CC(C)C)C(=O)N[C@@H](CO)C(=O)N[C@@H](C)C(=O)N[C@@H](CCC(=O)O)C(=O)N[C@@H](CC(C)C)C(=O)N[C@@H](Cc1c[nH]cn1)C(=O)N[C@@H](CCC(=O)O)C(=O)N[C@@H](CC(C)C)C(=O)N[C@@H](C)C(=O)N[C@H](C(=O)N[C@@H](CC(C)C)C(=O)N1CCC[C@H]1C(=O)N[C@@H](CCCNC(=N)N)C(=O)N[C@H](C(=O)N[C@@H](CCC(=O)O)C(=O)N[C@H](C(=O)NCC(=O)N1CCC[C@H]1C(=O)N[C@@H](CCC(=O)O)C(=O)N[C@@H](CO)C(=O)N1CCC[C@H]1C(N)=O)[C@@H](C)O)[C@@H](C)O)[C@@H](C)O

Numbered stars: 1 amine (or outer) side, 2 acyl side, 3 side chain; on linkers, the order of the positions; unused ones are H or OH. * marks the point of attachment. C20 diacid = O=C(O)CCCCCCCCCCCCCCCCCCC(=O)*; C18 diacid = O=C(O)CCCCCCCCCCCCCCCCC(=O)*; γGlu = O=C(O)[C@H](CCC(=O)[*:2])N[*:1]; C14 diacid = O=C(O)CCCCCCCCCCCCC(=O)*

The target of the assay is T1, human amylin receptor (human calcitonin receptor + human RAMP3) (human) (UniProt P30988).
T1 sequence (looked up) 1: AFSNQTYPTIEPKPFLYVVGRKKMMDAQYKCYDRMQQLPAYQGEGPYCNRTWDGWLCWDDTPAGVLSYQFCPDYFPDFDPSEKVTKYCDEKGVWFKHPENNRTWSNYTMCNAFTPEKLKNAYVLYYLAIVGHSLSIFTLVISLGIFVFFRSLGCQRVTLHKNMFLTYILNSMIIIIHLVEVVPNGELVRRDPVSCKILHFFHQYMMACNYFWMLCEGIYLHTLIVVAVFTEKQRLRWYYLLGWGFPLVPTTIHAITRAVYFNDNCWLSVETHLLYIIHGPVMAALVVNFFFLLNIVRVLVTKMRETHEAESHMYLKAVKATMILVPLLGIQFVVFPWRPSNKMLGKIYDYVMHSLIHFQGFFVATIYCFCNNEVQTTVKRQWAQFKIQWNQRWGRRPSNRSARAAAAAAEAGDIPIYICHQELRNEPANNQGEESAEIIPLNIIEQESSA
T1 sequence (looked up) 2: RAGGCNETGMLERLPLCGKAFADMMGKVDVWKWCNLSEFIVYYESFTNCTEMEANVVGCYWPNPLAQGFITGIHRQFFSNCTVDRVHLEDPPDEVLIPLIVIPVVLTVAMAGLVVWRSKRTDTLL
The assay can be described thus: whole-cell competition vs 125I-rat amylin (Assay Va).
As a reminder, the IC50 is the point on the concentration scale where inhibition reaches its midpoint. With {C20 diacid}-EASELSTAALGRLSAELHELATLPRTETGSGSP-NH2 [[N-terminal(C20 diacid), 30S, 31G]mimylin], the IC50 was 0.24 nM.
Take B1: the IC50 was 1.26 nM.
To {C18 diacid}-EASELSTAALGRLSAELHELATLPRTETGSGSP-NH2 [[N-terminal(C18 diacid), 30S, 31G]mimylin] belongs 0.187 nM; to B2, 1.31 nM.
Under B3 stands 0.329 nM.
Under B4 stands 0.832 nM.
B5: the IC50 stood at 1.48 nM.
Under B6 stands 0.511 nM; under B7, 0.275 nM; under {C14 diacid-γGlu}-ASELSTAALGRLSAELHELATLPRTETGPESP-NH2 [[N-terminal(C14 diacid-gGlu), des1]mimylin], 1.14 nM.

The record behind these values is patent US20160272683A1 (Novo Nordisk, published 2016).
